From US20230380451A1, “MEANS AND METHODS TO DETOXIFY MYCOTOXINS” (priority 2020, published 2023)

Legend:
[1] = type: biochemical
Protocol: (§1) To determine the transformation of DON to epi-THS by Akr I-III, described herein, the following assay was performed. An assay buffer was prepared containing 40 ppm DON, 1 mM NADPH in Teorell Stenhagen (TS) buffer, pH 6.0 (Östling and Virtama, Acta Physiologica Scandinavica, 1946, 11:4, 289-293). Tubes containing the assay buffer were transferred in a heating block at 30° C. The reaction was started by addition of Akr I-III to a final concentration of 200 nM in a final reaction volume of 200 μL. Samples were taken before reaction start, and 2, 5, 10, 15 and 20 min after reaction start. DON transformation reactions in these samples were stopped by mixing with absolute methanol at a 1:2 ratio, followed by a 1:100 dilution with 40% methanol. The concentrations of DON and epi-THS in the samples were determined with liquid chromatography-mass spectrometry (LC-MS) on a Sciex 5500 triple quadrupole mass spectrometer coupled to Agilent 1290 series UHPLC system, using the following MS parameters: Acquisition duration: 4 min; Scan Type: MRM (MRM); Polarity: Negative; Ion Source: Turbo Spray.
For LC, eluent A was 5% methanol, 94.9% water (ultrapure), 0.1% acetic acid, and eluent B was 99.9% methanol, 0.1% acetic acid, using a Phenomenex Kinetex 2.6 μm biphenyl 150×2.1 mm column, an injection volume of 1 μL and the protocol shown in Table 3.
By applying the DON transformation assay basically as described in Example 3, but at pH values ranging from pH 2 to pH 10, the pH optima for DON degradation of Akr I-III (SEQ ID NOs: 1-3) were determined. Akr I and Akr II reached maximum activities at pH 6.0, Akr III at pH 6.5.
By applying the DON transformation assay basically as described in Example 3, but at different temperatures ranging from 14.9° C. to 55.7° C., the temperature optima for the DON degradation activities of Akr I-III were determined. Akr I maximum activity was shown at approximately 35° C., Akr II at approximately 31° C., and Akr III at temperatures from approximately 28° C. to 33° C. (see FIG. 4). […] For Akr I even at temperatures below 20° C.

[2] = Storage stability in storage buffer at different temperatures, residual DON transformation activity; type: biochemical; settings: storage buffer
Protocol: as §1
The storage stability of Akr I-III was tested by incubation of 5 μM enzyme solutions in storage buffer (50 mM Tris pH 9.0, 0.5M NaCl, 50% Glycerol), for 60 min in a thermocycler (Mastercycler, Eppendorf) set to gradient mode from 30° C. to 50° C. Throughout the incubation, samples were removed and placed on ice until DON transformation assays were performed as described in Example 3 to determine enzyme activities. The starting activity at time 0 min was set to 100% and the relative residual activities were determined throughout the incubation. Akr I retained more than 33% activity during 60 min in pH 6 at temperatures from 29.9° C. to 46.0° C. Akr III retained 15% to 90% activity during 20 min in pH 6 at temperatures from 29.9° C. to 40.7° C.

B1: Akr II: artificial amino acid sequence, variant of a wild type aldo-keto reductase (protein)
chain: MRTTEIAQGLKVSNLCIGAGPLGGMPTAFGYDVSEERGIATVQAVFDSPINFMDTSSEYGGSEARIGKVIREGLMPKGFVISSKADAEGEGVGRRGDFSAKQVRASFELSLERLGLTHLDVYFLHDPEKFPFEQVMARGGAMEELLRLKDEGLVGLVGVAGGDVLEMARYVDTGSLDILLNYGRYTLLDRSADSLITKVSDAGMAFLNAGPYASGLLAAPRGGSAWYQYAPPDATALQAVDQLHELCESFDVSLRSVALQFSMRDPRITSTVVGLSRPERVRALLDDEAAEIPAELWEQLPAPLNGDIVLPG
modifications: ArkII
With B1 the “temperature of maximum DON degradation activity (temperature optimum)” value ([1]; 14.9° C. to 55.7° C. tested) was “approximately 31 °C”, the “pH of maximum DON degradation activity (pH optimum)” value ([1]; pH 2 to pH 10 tested, 30° C.) was 6.0 and the “Relative DON transformation activity” value ([2]; 29.9° C., 0 min (starting activity set to 100%)) was 100.00%. The “Relative DON transformation activity” value ([2]; 29.9° C., 5 min) was 95.8%, the “Relative DON transformation activity” value ([2]; 29.9° C., 10 min) was 91.6% and the “Relative DON transformation activity” value ([2]; 29.9° C., 20 min) was 90.3%. For the same molecule, the “Relative DON transformation activity” value ([2]; 29.9° C., 35 min) was 89.4%, the “Relative DON transformation activity” value ([2]; 29.9° C., 50 min) was 84.1% and the “Relative DON transformation activity” value ([2]; 29.9° C., 60 min) was 86.8%. The “Relative DON transformation activity” value ([2]; 35.3° C., 0 min (starting activity set to 100%)) was 100.00%, the “Relative DON transformation activity” value ([2]; 35.3° C., 5 min) was 91.9% and the “Relative DON transformation activity” value ([2]; 35.3° C., 10 min) was 92.5%. The “Relative DON transformation activity” value ([2]; 35.3° C., 20 min) was 86.0%, the “Relative DON transformation activity” value ([2]; 35.3° C., 35 min) was 77.4% and the “Relative DON transformation activity” value ([2]; 35.3° C., 50 min) was 49.6%. For the same molecule, the “Relative DON transformation activity” value ([2]; 35.3° C., 60 min) was 46.4%, the “Relative DON transformation activity” value ([2]; 37.9° C., 0 min (starting activity set to 100%)) was 100.00% and the “Relative DON transformation activity” value ([2]; 37.9° C., 5 min) was 90.5%. For the same molecule, the “Relative DON transformation activity” value ([2]; 37.9° C., 10 min) was 80.2%, the “Relative DON transformation activity” value ([2]; 37.9° C., 20 min) was 65.0% and the “Relative DON transformation activity” value ([2]; 37.9° C., 35 min) was 38.1%. For the same molecule, the “Relative DON transformation activity” value ([2]; 37.9° C., 50 min) was 10.6%, the “Relative DON transformation activity” value ([2]; 37.9° C., 60 min) was 6.2% and the “Relative DON transformation activity” value ([2]; 40.7° C., 0 min (starting activity set to 100%)) was 100.00%. For the same molecule, the “Relative DON transformation activity” value ([2]; 40.7° C., 5 min) was 61.5%, the “Relative DON transformation activity” value ([2]; 40.7° C., 10 min) was 56.1% and the “Relative DON transformation activity” value ([2]; 40.7° C., 20 min) was 15.5%. The “Relative DON transformation activity” value ([2]; 40.7° C., 35 min) was 11.3%, the “Relative DON transformation activity” value ([2]; 40.7° C., 50 min) was 0.00% and the “Relative DON transformation activity” value ([2]; 40.7° C., 60 min) was 0.00%. The “Relative DON transformation activity” value ([2]; 43.4° C., 0 min (starting activity set to 100%)) was 100.00%, the “Relative DON transformation activity” value ([2]; 43.4° C., 5 min) was 39.2% and the “Relative DON transformation activity” value ([2]; 43.4° C., 10 min) was 34.9%. For the same molecule, the “Relative DON transformation activity” value ([2]; 43.4° C., 20 min) was 21.9%, the “Relative DON transformation activity” value ([2]; 43.4° C., 35 min) was 7.1% and the “Relative DON transformation activity” value ([2]; 43.4° C., 50 min) was 0.00%. For the same molecule, the “Relative DON transformation activity” value ([2]; 43.4° C., 60 min) was 0.00%, the “Relative DON transformation activity” value ([2]; 46.0° C., 0 min (starting activity set to 100%)) was 100.00% and the “Relative DON transformation activity” value ([2]; 46.0° C., 5 min) was 2.9%. For the same molecule, the “Relative DON transformation activity” value ([2]; 46.0° C., 10 min) was 4.7%, the “Relative DON transformation activity” value ([2]; 46.0° C., 20 min) was 0.00% and the “Relative DON transformation activity” value ([2]; 46.0° C., 35 min) was 2.7%. The “Relative DON transformation activity” value ([2]; 46.0° C., 50 min) was 0.00%, the “Relative DON transformation activity” value ([2]; 46.0° C., 60 min) was 0.00% and the “Relative DON transformation activity” value ([2]; 50.8° C., 0 min (starting activity set to 100%)) was 100.00%. The “Relative DON transformation activity” value ([2]; 50.8° C., 5 min) was 4.7%, the “Relative DON transformation activity” value ([2]; 50.8° C., 10 min) was 5.7% and the “Relative DON transformation activity” value ([2]; 50.8° C., 20 min) was 9.4%. The “Relative DON transformation activity” value ([2]; 50.8° C., 35 min) was 2.4%, the “Relative DON transformation activity” value ([2]; 50.8° C., 50 min) was 0.00% and the “Relative DON transformation activity” value ([2]; 50.8° C., 60 min) was 0.00%.
